According to PMC4284922:

T1: untagged STAT1, wild type (human), P42224
T1 chain: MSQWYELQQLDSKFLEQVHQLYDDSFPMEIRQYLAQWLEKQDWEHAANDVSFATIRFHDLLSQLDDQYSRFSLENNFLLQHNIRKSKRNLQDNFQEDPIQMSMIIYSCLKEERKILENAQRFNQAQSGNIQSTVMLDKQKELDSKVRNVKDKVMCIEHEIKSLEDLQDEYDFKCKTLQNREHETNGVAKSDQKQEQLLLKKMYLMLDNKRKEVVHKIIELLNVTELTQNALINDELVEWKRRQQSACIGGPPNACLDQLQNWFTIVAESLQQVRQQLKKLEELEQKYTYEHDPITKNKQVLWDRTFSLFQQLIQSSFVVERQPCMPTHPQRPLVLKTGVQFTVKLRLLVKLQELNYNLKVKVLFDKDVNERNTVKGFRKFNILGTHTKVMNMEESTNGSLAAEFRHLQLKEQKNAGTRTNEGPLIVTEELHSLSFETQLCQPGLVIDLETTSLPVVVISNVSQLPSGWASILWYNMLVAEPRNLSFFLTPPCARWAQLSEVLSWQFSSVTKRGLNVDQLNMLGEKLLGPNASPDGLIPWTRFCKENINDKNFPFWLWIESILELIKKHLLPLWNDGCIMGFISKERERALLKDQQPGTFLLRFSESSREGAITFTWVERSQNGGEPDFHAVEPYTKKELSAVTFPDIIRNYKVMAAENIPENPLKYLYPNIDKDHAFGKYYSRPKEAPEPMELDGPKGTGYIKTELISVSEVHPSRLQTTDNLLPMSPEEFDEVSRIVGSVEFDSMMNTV

B1: untagged STAT1, wild type, P42224 1-750 (natural protein)
chain: MSQWYELQQLDSKFLEQVHQLYDDSFPMEIRQYLAQWLEKQDWEHAANDVSFATIRFHDLLSQLDDQYSRFSLENNFLLQHNIRKSKRNLQDNFQEDPIQMSMIIYSCLKEERKILENAQRFNQAQSGNIQSTVMLDKQKELDSKVRNVKDKVMCIEHEIKSLEDLQDEYDFKCKTLQNREHETNGVAKSDQKQEQLLLKKMYLMLDNKRKEVVHKIIELLNVTELTQNALINDELVEWKRRQQSACIGGPPNACLDQLQNWFTIVAESLQQVRQQLKKLEELEQKYTYEHDPITKNKQVLWDRTFSLFQQLIQSSFVVERQPCMPTHPQRPLVLKTGVQFTVKLRLLVKLQELNYNLKVKVLFDKDVNERNTVKGFRKFNILGTHTKVMNMEESTNGSLAAEFRHLQLKEQKNAGTRTNEGPLIVTEELHSLSFETQLCQPGLVIDLETTSLPVVVISNVSQLPSGWASILWYNMLVAEPRNLSFFLTPPCARWAQLSEVLSWQFSSVTKRGLNVDQLNMLGEKLLGPNASPDGLIPWTRFCKENINDKNFPFWLWIESILELIKKHLLPLWNDGCIMGFISKERERALLKDQQPGTFLLRFSESSREGAITFTWVERSQNGGEPDFHAVEPYTKKELSAVTFPDIIRNYKVMAAENIPENPLKYLYPNIDKDHAFGKYYSRPKEAPEPMELDGPKGTGYIKTELISVSEVHPSRLQTTDNLLPMSPEEFDEVSRIVGSVEFDSMMNTV
modifications: here or on the partner: phosphotyrosine at 701 (tyrosine-phosphorylated, from IFNγ-stimulated cells); phosphotyrosine at 701 (tyrosine-phosphorylated, from IFNγ-stimulated cells)

Legend:
STAT1 (Homo sapiens) = STAT1 (Homo sapiens) (UniProt P42224); assay: analytical ultracentrifugation; details: cited from earlier work
[1] = molecular target: T1, untagged STAT1, wild type (human), …; assay: native gel or EMSA; extracts with GFP-tagged and with untagged STAT1 mixed and co-incubated for 0, 15 or 30 min at room temperature with [33P]-labelled M67 (single GAS site); band of intermediate mobility; details: remark: other sources report otherwise

Molecule | Kd (STAT1 (Homo sapiens)) | half-life of the dimer [1]
STAT1 (from UniProt P42224) | 50 nM | 
B1 |  | > 10 min
